Measured values published in publication PMC4461266 (PLoS Pathogens, 2015).

Target: PR8-PB1-GST (influenza A virus A/Puerto Rico/8/1934 …, UniProt P03431 1-757)
Assay: pull-down
Settings: both partners purified

B1: TRIM32-HIS (natural protein, human, UniProt Q13049 1-653, looked up)
chain: MAAAAASHLNLDALREVLECPICMESFTEEQLRPKLLHCGHTICRQCLEKLLASSINGVRCPFCSKITRITSLTQLTDNLTVLKIIDTAGLSEAVGLLMCRSCGRRLPRQFCRSCGLVLCEPCREADHQPPGHCTLPVKEAAEERRRDFGEKLTRLRELMGELQRRKAALEGVSKDLQARYKAVLQEYGHEERRVQDELARSRKFFTGSLAEVEKSNSQVVEEQSYLLNIAEVQAVSRCDYFLAKIKQADVALLEETADEEEPELTASLPRELTLQDVELLKVGHVGPLQIGQAVKKPRTVNVEDSWAMEATASAASTSVTFREMDMSPEEVVASPRASPAKQRGPEAASNIQQCLFLKKMGAKGSTPGMFNLPVSLYVTSQGEVLVADRGNYRIQVFTRKGFLKEIRRSPSGIDSFVLSFLGADLPNLTPLSVAMNCQGLIGVTDSYDNSLKVYTLDGHCVACHRSQLSKPWGITALPSGQFVVTDVEGGKLWCFTVDRGSGVVKYSCLCSAVRPKFVTCDAEGTVYFTQGLGLNLENRQNEHHLEGGFSIGSVGPDGQLGRQISHFFSENEDFRCIAGMCVDARGDLIVADSSRKEILHFPKGGGYSVLIREGLTCPVGIALTPKGQLLVLDCWDHCIKIYSYHLRRYSTP
notes: also called HIS-TRIM32; HIS-tagged TRIM32
binding result: binds
